Test results: paper PMC3036992

Molecular target: T1, RB69 DNA polymerase (RB69 pol) (Bacteriophage RB69, UniProt Q38087 1-903, D222A;D327A)
T1 sequence: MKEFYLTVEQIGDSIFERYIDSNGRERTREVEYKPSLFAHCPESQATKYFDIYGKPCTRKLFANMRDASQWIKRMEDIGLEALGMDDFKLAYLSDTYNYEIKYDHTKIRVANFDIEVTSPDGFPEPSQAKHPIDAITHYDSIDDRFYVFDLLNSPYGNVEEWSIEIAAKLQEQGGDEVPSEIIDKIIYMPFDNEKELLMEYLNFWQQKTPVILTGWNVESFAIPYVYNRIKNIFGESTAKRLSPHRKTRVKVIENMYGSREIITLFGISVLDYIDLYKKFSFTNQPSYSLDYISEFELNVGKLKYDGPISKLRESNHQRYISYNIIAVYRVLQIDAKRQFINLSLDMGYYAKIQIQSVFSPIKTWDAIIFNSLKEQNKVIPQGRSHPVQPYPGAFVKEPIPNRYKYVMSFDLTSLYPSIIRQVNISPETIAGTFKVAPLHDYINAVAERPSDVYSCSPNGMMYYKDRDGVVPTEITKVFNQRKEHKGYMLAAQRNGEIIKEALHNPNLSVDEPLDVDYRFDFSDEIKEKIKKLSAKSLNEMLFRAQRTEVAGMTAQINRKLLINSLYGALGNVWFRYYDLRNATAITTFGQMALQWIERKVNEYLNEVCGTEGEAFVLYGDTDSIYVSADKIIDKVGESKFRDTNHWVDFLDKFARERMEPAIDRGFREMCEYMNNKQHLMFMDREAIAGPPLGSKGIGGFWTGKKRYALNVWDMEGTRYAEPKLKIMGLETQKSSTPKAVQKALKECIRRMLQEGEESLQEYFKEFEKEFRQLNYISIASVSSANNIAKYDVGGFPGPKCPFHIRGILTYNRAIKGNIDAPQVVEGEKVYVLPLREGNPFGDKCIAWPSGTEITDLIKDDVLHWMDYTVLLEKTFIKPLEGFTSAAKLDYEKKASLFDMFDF
Assay: X-ray crystallography

B1: P/T cocrystallization duplex (18-mer template/13-mer ddC primer) (dsDNA)
DNA 1: TCAGGTAAGCAGTCCGCG
DNA 2: GCGGACTGCTTAC
modifications: primer 3' terminus dideoxy (ddC)
B1: binds.
